According to publication PMC8529273:

The substances below were run against human ACE-2, Fc-tagged (human) (UniProt Q9BYF1) (assay: BLI).
Work on “SARS-CoV-2 B.1.351 RBD (K417N_E484K_N501Y) (domain or fragment)” yielded a Kd of 7.81 nM. Substance “SARS-CoV-2 P.1 RBD (K417T_E484K_N501Y) (domain or fragment)” has a Kd of 5.64 nM. For “SARS-CoV-2 RBD E484K (domain or fragment)”, the Kd was 15.6 nM, the koff was 0.00677 s⁻¹ and the kon was 433000 M⁻¹ s⁻¹. With “SARS-CoV-2 RBD K417N (domain or fragment)” the Kd was 77 nM and the koff was 0.0162 s⁻¹. Substance “SARS-CoV-2 RBD K417T (domain or fragment)” has a Kd of 56.7 nM and a koff of 0.0129 s⁻¹. For “SARS-CoV-2 receptor-binding domain (RBD) wild type (Wuhan strain) (domain or fragment)”, the Kd was 23.9 nM, the koff was 0.00755 s⁻¹ and the kon was 315000 M⁻¹ s⁻¹.
